Results taken from patent US20060210473A1.

Tests used:
[1] = target: human endoglin (human) (UniProt P17813); assay: FACS on U937; one grade for both antibodies; + is CFI 5-25
[2] = target: human endoglin (human) (UniProt P17813); assay: FACS on HUVEC, concentration giving half-maximal fluorescence
[3] = target: human endoglin (human) (UniProt P17813); assay: FACS on ECV-304; one grade for both antibodies; ++ is CFI 25-50
[4] = target: human endoglin (human) (UniProt P17813); assay: FACS on HT-1080 and SAOS-2 sarcoma lines; one grade for both antibodies; + is CFI 5-25
[5] = target: human endoglin (human) (UniProt P17813); assay: FACS on L-endoglin fibroblast transfectant; one grade for both antibodies; +++ is CFI 50-100
[6] = target: human endoglin (human) (UniProt P17813); assay: FACS, 20 µg/ml TEC-11 on the sorted endoglin^hi fraction of postconfluent HUVEC; mean of 2 studies, SD 3.8
[7] = target: human endoglin (human) (UniProt P17813); assay: FACS on MDA-MB-231 and SKBR3 breast tumor lines; one grade for both antibodies; + is CFI 5-25
[8] = target: human endoglin (human) (UniProt P17813); assay: FACS competition on HUVEC; unlabelled TEC-11 against biotinylated TEC-4 (competitor), ratio 1:1
[9] = target: human endoglin (human) (UniProt P17813); assay: FACS on HUVEC; one grade for both antibodies; ++++ is CFI >100
[10] = target: human endoglin (human) (UniProt P17813); assay: FACS, 20 µg/ml TEC-11 on the sorted endoglin^lo fraction of postconfluent HUVEC; mean of 2 studies, SD 2.4
[11] = target: human endoglin (human) (UniProt P17813); assay: indirect immunofluorescence, FACS on HUVEC, 10 µg/ml
[12] = target: human endoglin (human) (UniProt P17813); assay: cell-based or functional assay
[13] = target: human endoglin (human) (UniProt P17813); assay: FACS on A375M and T8 melanoma lines; one grade for both antibodies; + is CFI 5-25
[14] = target: human endoglin (human) (UniProt P17813); assay: FACS competition on HUVEC; unlabelled TEC-4 against biotinylated TEC-11 (competitor), ratio TEC-11:TEC-4 1:100
[15] = target: human endoglin (human) (UniProt P17813); assay: FACS competition on HUVEC; unlabelled TEC-4 against biotinylated TEC-11 (competitor), ratio 1:1

Row | Substance | corrected fluorescence intensity (CFI) [1] [cfi] | EC50 [2] [µg/mL] | corrected fluorescence intensity (CFI) [3] [cfi] | corrected fluorescence intensity (CFI) [4] [cfi] | corrected fluorescence intensity (CFI) [5] [cfi] | MFI [6] [MFI] | corrected fluorescence intensity (CFI) [7] [cfi] | percent blocking [8] [%] | corrected fluorescence intensity (CFI) [9] [cfi] | MFI [10] [MFI] | specific mean fluorescence intensity (MFI) [11] [MFI] | complement fixation, relative to TEC-4 [12] [fold] | complement-mediated lysis of HUVEC (trypan blue) [12] [% lysis] | corrected fluorescence intensity (CFI) [13] [cfi] | percent blocking [14] [%] | percent blocking [15] [%]
1 | TEC-11 (antibody) | 5 to 25 | 0.4 | 25 to 50 | 5 to 25 | 50 to 100 | 270 | 5 to 25 | 51 | > 100 | 61.6 | 200 | 100 | 50 | 5 to 25 |  | 
2 | TEC-4 (antibody) | 5 to 25 | 4 | 25 to 50 | 5 to 25 | 50 to 100 |  | 5 to 25 |  | > 100 |  | 200 |  | 48 | 5 to 25 | 20 | 1
